# Assay results as given in patent US20130005646A1 (Novo Nordisk, published 2013).
# Starred links: 1 amine or outer side, 2 acyl side, 3 side chain; linkers in the order of their positions; H or OH if unused. Positions of bridges follow the written chain, without caps; N, C: chain ends. *: point of attachment. X1 = (S)‑4‑Carboxy‑4‑(19-carboxynonadecanoylamino)butyryl, O=C(O)CCCCCCCCCCCCCCCCCCC(=O)N[C@@H](CCC(=O)*)C(=O)O; C20 diacid = O=C(O)CCCCCCCCCCCCCCCCCCC(=O)*; γGlu = O=C(O)[C@H](CCC(=O)[*:2])N[*:1]
# T1: human amylin 3(a) receptor (human calcitonin receptor + RAMP-3) (human, UniProt P30988 25-474; O60896 24-148)
# T1 sequence (looked up) 1: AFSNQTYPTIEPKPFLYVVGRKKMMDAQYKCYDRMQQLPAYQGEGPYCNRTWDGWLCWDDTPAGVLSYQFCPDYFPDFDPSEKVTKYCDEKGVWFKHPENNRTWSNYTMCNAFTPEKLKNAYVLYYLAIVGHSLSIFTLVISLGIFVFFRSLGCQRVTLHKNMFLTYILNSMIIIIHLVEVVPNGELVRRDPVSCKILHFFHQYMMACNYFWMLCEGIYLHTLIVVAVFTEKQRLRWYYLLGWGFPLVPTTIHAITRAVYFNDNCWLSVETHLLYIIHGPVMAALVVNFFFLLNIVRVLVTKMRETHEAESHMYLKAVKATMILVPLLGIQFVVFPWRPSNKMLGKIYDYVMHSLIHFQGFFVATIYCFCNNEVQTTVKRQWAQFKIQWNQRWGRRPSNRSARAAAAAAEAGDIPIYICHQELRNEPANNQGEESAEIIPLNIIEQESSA
# T1 sequence (looked up) 2: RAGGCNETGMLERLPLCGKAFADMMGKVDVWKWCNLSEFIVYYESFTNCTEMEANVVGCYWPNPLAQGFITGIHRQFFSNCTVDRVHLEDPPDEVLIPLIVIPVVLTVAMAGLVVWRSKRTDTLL
# T2: human calcitonin (a) receptor (human, UniProt P30988 25-474)
# T2 sequence (looked up): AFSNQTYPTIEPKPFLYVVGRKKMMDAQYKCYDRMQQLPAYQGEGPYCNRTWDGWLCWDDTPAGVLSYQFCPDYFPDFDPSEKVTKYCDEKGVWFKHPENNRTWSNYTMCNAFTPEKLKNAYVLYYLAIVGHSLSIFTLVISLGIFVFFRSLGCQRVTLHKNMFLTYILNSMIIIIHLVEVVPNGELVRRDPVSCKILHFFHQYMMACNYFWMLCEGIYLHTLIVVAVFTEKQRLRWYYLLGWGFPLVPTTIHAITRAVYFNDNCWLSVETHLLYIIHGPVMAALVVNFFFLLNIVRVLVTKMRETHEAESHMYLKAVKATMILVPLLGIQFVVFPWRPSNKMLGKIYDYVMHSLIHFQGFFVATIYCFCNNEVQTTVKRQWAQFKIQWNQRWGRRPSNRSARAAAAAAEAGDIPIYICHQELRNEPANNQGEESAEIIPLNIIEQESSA
# T3: rat calcitonin (a) receptor (rat, UniProt P32214 25-516)
# T3 sequence (looked up): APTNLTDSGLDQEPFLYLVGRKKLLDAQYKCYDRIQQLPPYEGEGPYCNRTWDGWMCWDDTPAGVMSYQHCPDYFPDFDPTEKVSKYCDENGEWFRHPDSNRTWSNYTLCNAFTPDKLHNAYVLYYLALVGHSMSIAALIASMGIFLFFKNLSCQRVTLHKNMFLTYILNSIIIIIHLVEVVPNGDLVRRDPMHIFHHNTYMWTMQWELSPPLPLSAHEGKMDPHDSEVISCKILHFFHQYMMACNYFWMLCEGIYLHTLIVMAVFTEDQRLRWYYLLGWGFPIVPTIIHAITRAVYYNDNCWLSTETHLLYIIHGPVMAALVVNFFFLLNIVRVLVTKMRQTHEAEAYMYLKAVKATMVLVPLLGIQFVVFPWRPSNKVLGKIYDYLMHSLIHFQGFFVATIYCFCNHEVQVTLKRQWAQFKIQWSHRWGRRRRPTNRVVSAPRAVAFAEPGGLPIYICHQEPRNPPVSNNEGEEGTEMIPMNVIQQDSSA
# T4: rat amylin 3(a) receptor (rat calcitonin(a) receptor + rat RAMP3) (rat, UniProt P32214 25-516; Q9JJ73 23-147)
# T4 sequence (looked up) 1: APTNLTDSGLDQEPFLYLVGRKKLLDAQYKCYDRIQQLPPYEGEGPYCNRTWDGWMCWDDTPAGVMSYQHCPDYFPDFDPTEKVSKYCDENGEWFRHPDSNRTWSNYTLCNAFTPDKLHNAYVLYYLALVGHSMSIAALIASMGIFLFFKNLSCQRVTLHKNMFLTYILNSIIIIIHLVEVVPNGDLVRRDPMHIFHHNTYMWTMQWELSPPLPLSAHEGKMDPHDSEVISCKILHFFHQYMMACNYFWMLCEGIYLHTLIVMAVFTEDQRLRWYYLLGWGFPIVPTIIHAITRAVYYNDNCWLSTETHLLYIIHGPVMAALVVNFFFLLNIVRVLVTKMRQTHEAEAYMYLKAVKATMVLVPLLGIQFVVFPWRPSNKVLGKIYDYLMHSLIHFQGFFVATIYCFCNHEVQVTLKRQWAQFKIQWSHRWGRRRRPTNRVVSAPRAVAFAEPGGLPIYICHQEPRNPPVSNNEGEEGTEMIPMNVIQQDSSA
# T4 sequence (looked up) 2: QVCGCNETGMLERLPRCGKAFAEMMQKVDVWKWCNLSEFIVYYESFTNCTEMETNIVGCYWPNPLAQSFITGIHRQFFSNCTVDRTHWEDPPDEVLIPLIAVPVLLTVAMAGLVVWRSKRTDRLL
# Tests used:
# Experiment in all cases: cell-based or functional assay
# [1] = molecular target: T1, human amylin 3(a) receptor (human …)
# [2] = molecular target: T2, human calcitonin (a) receptor
# [3] = molecular target: T3, rat calcitonin (a) receptor
# [4] = molecular target: T4, rat amylin 3(a) receptor (rat …)
Binder,Amylin receptor human EC50 [1] [nM],CTa receptor human EC50 [2] [nM],CTa receptor rat EC50 [3] [nM],Amylin receptor rat EC50 [4] [nM]
"{C20 diacid-γGlu}-HHHCNTATCATQRLAEFLVHSSNNFGPILPPTNVGSNTY-NH2 (disulfide 4-9; SMILES CC[C@H](C)[C@H](NC(=O)[C@@H]1CCCN1C(=O)CNC(=O)[C@H](Cc1ccccc1)NC(=O)[C@H](CC(N)=O)NC(=O)[C@H](CC(N)=O)NC(=O)[C@H](CO)NC(=O)[C@H](CO)NC(=O)[C@H](Cc1c[nH]cn1)NC(=O)[C@@H](NC(=O)[C@H](CC(C)C)NC(=O)[C@H](Cc1ccccc1)NC(=O)[C@H](CCC(=O)O)NC(=O)[C@H](C)NC(=O)[C@H](CC(C)C)NC(=O)[C@H](CCCNC(=N)N)NC(=O)[C@H](CCC(N)=O)NC(=O)[C@@H](NC(=O)[C@H](C)NC(=O)[C@@H]1CSSC[C@H](NC(=O)[C@H](Cc2c[nH]cn2)NC(=O)[C@H](Cc2c[nH]cn2)NC(=O)[C@H](Cc2c[nH]cn2)NC(=O)CC[C@H](NC(=O)CCCCCCCCCCCCCCCCCCC(=O)O)C(=O)O)C(=O)N[C@@H](CC(N)=O)C(=O)N[C@@H]([C@@H](C)O)C(=O)N[C@@H](C)C(=O)N[C@@H]([C@@H](C)O)C(=O)N1)[C@@H](C)O)C(C)C)C(=O)N[C@@H](CC(C)C)C(=O)N1CCC[C@H]1C(=O)N1CCC[C@H]1C(=O)N[C@H](C(=O)N[C@@H](CC(N)=O)C(=O)N[C@H](C(=O)NCC(=O)N[C@@H](CO)C(=O)N[C@@H](CC(N)=O)C(=O)N[C@H](C(=O)N[C@@H](Cc1ccc(O)cc1)C(N)=O)[C@@H](C)O)C(C)C)[C@@H](C)O) [N-alpha-[(S)-4-Carboxy-4-(19-carboxynonadecanoylamino)butyryl]-His-His-[His1,Glu14]-pramlintide]",0.151,0.74,,
"KCNTATCATQRLAEFLRHSSNNFGPILPPTNVGSNTP (N-alpha acylated: C20diacid-gGlu; disulfide Cys2-Cys7; C-terminal amide) [N-alpha-[(S)-4-Carboxy-4-(19-carboxynonadecanoylamino)butyryl]-[Glu14,Arg17,Pro37]-pramlintide]",,,0.287,0.348
{C20 diacid-γGlu}-HCGTATCATQRLAEFLHRSSSSFGPILPPTEVGSETY-NH2 (disulfide 2-7; SMILES CC[C@H](C)[C@H](NC(=O)[C@@H]1CCCN1C(=O)CNC(=O)[C@H](Cc1ccccc1)NC(=O)[C@H](CO)NC(=O)[C@H](CO)NC(=O)[C@H](CO)NC(=O)[C@H](CO)NC(=O)[C@H](CCCNC(=N)N)NC(=O)[C@H](Cc1c[nH]cn1)NC(=O)[C@H](CC(C)C)NC(=O)[C@H](Cc1ccccc1)NC(=O)[C@H](CCC(=O)O)NC(=O)[C@H](C)NC(=O)[C@H](CC(C)C)NC(=O)[C@H](CCCNC(=N)N)NC(=O)[C@H](CCC(N)=O)NC(=O)[C@@H](NC(=O)[C@H](C)NC(=O)[C@@H]1CSSC[C@H](NC(=O)[C@H](Cc2c[nH]cn2)NC(=O)CC[C@H](NC(=O)CCCCCCCCCCCCCCCCCCC(=O)O)C(=O)O)C(=O)NCC(=O)N[C@@H]([C@@H](C)O)C(=O)N[C@@H](C)C(=O)N[C@@H]([C@@H](C)O)C(=O)N1)[C@@H](C)O)C(=O)N[C@@H](CC(C)C)C(=O)N1CCC[C@H]1C(=O)N1CCC[C@H]1C(=O)N[C@H](C(=O)N[C@@H](CCC(=O)O)C(=O)N[C@H](C(=O)NCC(=O)N[C@@H](CO)C(=O)N[C@@H](CCC(=O)O)C(=O)N[C@H](C(=O)N[C@@H](Cc1ccc(O)cc1)C(N)=O)[C@@H](C)O)C(C)C)[C@@H](C)O),0.313,0.198,,
"X1-HCNTATCATQRLAEFLVRSSNNFGPILPPTNVGSNTY-NH2 (disulfide 2-7; SMILES CC[C@H](C)[C@H](NC(=O)[C@@H]1CCCN1C(=O)CNC(=O)[C@H](Cc1ccccc1)NC(=O)[C@H](CC(N)=O)NC(=O)[C@H](CC(N)=O)NC(=O)[C@H](CO)NC(=O)[C@H](CO)NC(=O)[C@H](CCCNC(=N)N)NC(=O)[C@@H](NC(=O)[C@H](CC(C)C)NC(=O)[C@H](Cc1ccccc1)NC(=O)[C@H](CCC(=O)O)NC(=O)[C@H](C)NC(=O)[C@H](CC(C)C)NC(=O)[C@H](CCCNC(=N)N)NC(=O)[C@H](CCC(N)=O)NC(=O)[C@@H](NC(=O)[C@H](C)NC(=O)[C@@H]1CSSC[C@H](NC(=O)[C@H](Cc2c[nH]cn2)NC(=O)CC[C@H](NC(=O)CCCCCCCCCCCCCCCCCCC(=O)O)C(=O)O)C(=O)N[C@@H](CC(N)=O)C(=O)N[C@@H]([C@@H](C)O)C(=O)N[C@@H](C)C(=O)N[C@@H]([C@@H](C)O)C(=O)N1)[C@@H](C)O)C(C)C)C(=O)N[C@@H](CC(C)C)C(=O)N1CCC[C@H]1C(=O)N1CCC[C@H]1C(=O)N[C@H](C(=O)N[C@@H](CC(N)=O)C(=O)N[C@H](C(=O)NCC(=O)N[C@@H](CO)C(=O)N[C@@H](CC(N)=O)C(=O)N[C@H](C(=O)N[C@@H](Cc1ccc(O)cc1)C(N)=O)[C@@H](C)O)C(C)C)[C@@H](C)O) [N-alpha-[(S)-4-Carboxy-4-(19-carboxynonadecanoylamino)butyryl]-[His1,Glu14,Arg18]-pramlintide]",0.083,0.125,,
